In the assay the target is ubiquitin (Homo sapiens, UniProt P0CG47). Description: PPI-CONA.

B1: CDC34A (protein)
chain: MARPLVPSSQKALLLELKGLQEEPVEGFRVTLVDEGDLYNWEVAIFGPPNTYYEGGYFKARLKFPIDYPYSPPAFRFLTKMWHPNIYETGDVCISILHPPVDDPQSGELPSERWNPTQNVRTILLSVISLLNEPNTFSPANVDASVMYRKWKESKGKDREYTDIIRKQVLGTKVDAERDGVKVPTTLAEYCVKTKAPAPDEGSDLFYDDYYEDGEVEEEADSCFGDDEDDSGTEES
modifications: CC0651
Broadly, the Kd is the equilibrium constant for the complex coming apart. A low value points to tighter binding. For the molecule B1, binding was characterised by a dissociation constant (Kd) of 12.2 µM.
